The record followed here is patent publication US20250026849A1 (ARCELLX, published 2025).

B1: D domain SEQ ID NO: 678 (designed binder)
chain: MGSWFEFEERLNAISWRLHALGGSEAELAYFEEDIAWFEDDLQFYKGKGNPEVEALENEAYAIWEELDAYRHN
B2: D domain SEQ ID NO: 705 (designed binder)
chain: MGSWDEFWDRLDAIEDRLFALGGSEAELADFERVIAWFENDLQEYKGKGNPEVEALDNEADAIRIELHAYRHN
B3: D domain SEQ ID NO: 681 (designed binder)
chain: MGSWDEFEERLQAIEYRLWALGGSEAELAWFEEVIAQFEYDLQKYKGKGNPEVEALSTEAQAIQDELWAYRHN
B4: D domain SEQ ID NO: 745 (designed binder)
chain: MGSWIEFEDRLYAIEDRLWALGGSEAELAAFEKEIAAFESELQAYKGKGNPEVEFLRYEAAEIRYWLQAYRHN
B5: D domain SEQ ID NO: 713 (designed binder)
chain: MGSWTEFDMRLDAIWDRLFALGGSEAELAAFEKEIAAFESELQAYKGKGNPEVEELREEAATIRGVLQAYRHN
B6: D domain SEQ ID NO: 715 (designed binder)
chain: MGSWVEFRDRLDAIETRLWALGGSEAELAAFEKEIAAFESELQAYKGKGNPEVEWLRYEAAEIRMVLQAYRHN
B7: D domain SEQ ID NO: 711 (designed binder)
chain: MGSWIEFEVRLDAIWDRLFALGGSEAELAAFEKEIAAFESELQAYKGKGNPEVEYLRDEAADIRQSLQAYRHN
B8: D domain SEQ ID NO: 712 (designed binder)
chain: MGSWTEFDRRLDAIWDRLFALGGSEAELAAFEKEIAAFESELQAYKGKGNPEVEWLREEAADIRDYLQAYRHN
B9: D domain SEQ ID NO: 714 (designed binder)
chain: MGSWEEFHDRLMAIETRLWALGGSEAELAAFEKEIAAFESELQAYKGKGNPEVEWLRYEAADIRDYLQAYRHN
B10: D domain SEQ ID NO: 716 (designed binder)
chain: MGSWMEFIDRLDAIEHRLWALGGSEAELAAFEKEIAAFESELQAYKGKGNPEVEFLREEAAEIRMYLQAYRHN
B11: D domain SEQ ID NO: 709 (designed binder)
chain: MGSWYEFDDRLEAIWDRLGALGGSEAELAAFEKEIAAFESELQAYKGKGNPEVEWLRETAADIRAELQAYRHN
B12: D domain SEQ ID NO: 691 (designed binder)
chain: MGSWVEFEYRLDAISDRLWALGGSEAELAFFENEIASFESDLQFYKGKGNPEVEALMFEAEAIDDELHAYRHN
B13: D domain SEQ ID NO: 706 (designed binder)
chain: MGSWDEFDDRLEAIVDRLFALGGSEAELAMFEFEIAQFEHQLQYYKGKGNPEVEALRDEADAIWIELDAYRHN
B14: D domain SEQ ID NO: 708 (designed binder)
chain: MGSWFEFEWRLDAIENRLNALGGSEAELAWFEYHIAAFEDSLQHYKGKGNPEVEALEWEAHAIQSELQAYRHN
B15: D domain SEQ ID NO: 698 (designed binder)
chain: MGSWYEFEDRLDAILYRLLALGGSEAELAWFERDIAFFESELQWYKGKGNPEVEALEWEAMAIDDELFAYRHN
B16: D domain SEQ ID NO: 690 (designed binder)
chain: MGSWDEFHQRLAAIGDRLWALGGSEAELAYFEWEIATFEWDLQVYKGKGNPEVEALYFEATAIDEELMAYRHN
B17: D domain SEQ ID NO: 701 (designed binder)
chain: MGSWYEFADRLDAIMDRLVALGGSEAELAYFEWEIAAFEEFLQMYKGKGNPEVEALDEEAEAIKDELMAYRHN
B18: D domain SEQ ID NO: 696 (designed binder)
chain: MGSWLEFEDRLVAIDHRLFALGGSEAELAEFEEEIALFESYLQDYKGKGNPEVEALNWEADAIHAELYAYRHN
B19: D domain SEQ ID NO: 684 (designed binder)
chain: MGSWVEFFWRLDAIEDRLWALGGSEAELANFEFEIADFEAWLQKYKGKGNPEVEALHSEADAIQLELRAYRHN
B20: D domain SEQ ID NO: 685 (designed binder)
chain: MGSWVEFYNRLDAIENRLWALGGSEAELAFFEELIAQFEFALQDYKGKGNPEVEALEDEADAIWEELMAYRHN
B21: D domain SEQ ID NO: 694 (designed binder)
chain: MGSWYEFFDRLDAIYDRLYALGGSEAELASFEAQIAEFEVELQSYKGKGNPEVEALEWEAWAIDEELYAYRHN
B22: D domain SEQ ID NO: 692 (designed binder)
chain: MGSWDEFDTRLDAIFSRLYALGGSEAELAMFEGEIAEFEGSLQHYKGKGNPEVEALDFEAHAIDEELWAYRHN
B23: D domain SEQ ID NO: 697 (designed binder)
chain: MGSWYEFESRLDAIVDRLWALGGSEAELAEFEYEIAKFEWELQDYKGKGNPEVEALNWEAGAIEFELYAYRHN
B24: D domain SEQ ID NO: 703 (designed binder)
chain: MGSWYEFDARLDAIEERLYALGGSEAELAAFEFEIAGFEEALQWYKGKGNPEVEALLKEAEAITDELYAYRHN
B25: D domain SEQ ID NO: 693 (designed binder)
chain: MGSWHEFDDRLDAIMSRLDALGGSEAELATFEAEIATFEFVLQLYKGKGNPEVEALLAEAYAIDWELEAYRHN
B26: D domain SEQ ID NO: 689 (designed binder)
chain: MGSWEEFEQRLWAIDDRLWALGGSEAELAFFEYEIAEFEMDLQWYKGKGNPEVEALFYEAHAINEELWAYRHN
B27: D domain SEQ ID NO: 682 (designed binder)
chain: MGSWWEFTDRLDAIFDRLWALGGSEAELAAFEESIAIFEQDLQYYKGKGNPEVEALEYEANAIQYELEAYRHN
B28: D domain SEQ ID NO: 707 (designed binder)
chain: MGSWEEFTIRLGAIYWRLFALGGSEAELANFEWFIAEFEYELQPYKGKGNPEVEALVIEANAIDGELQAYRHN
B29: D domain SEQ ID NO: 688 (designed binder)
chain: MGSWEEFDERLWAISDRLWALGGSEAELAYFEGEIAYFEQNLQTYKGKGNPEVEALQTEALAIDTELWAYRHN
B30: D domain SEQ ID NO: 686 (designed binder)
chain: MGSWEEFYYRLHAIDNRLWALGGSEAELAYFEWHIADFELELQDYKGKGNPEVEALSEEATAIFEELWAYRHN
B31: D domain SEQ ID NO: 699 (designed binder)
chain: MGSWGEFMDRLEAIDYRLWALGGSEAELAWFESDIAEFEQELQMYKGKGNPEVEALWDEAMAIRDELFAYRHN
B32: D domain SEQ ID NO: 702 (designed binder)
chain: MGSWNEFWERLDAIEWRLFALGGSEAELAFFELDIAWFEEELQWYKGKGNPEVEALIFEAHAITLELDAYRHN
B33: D domain SEQ ID NO: 683 (designed binder)
chain: MGSWWEFTDRLEAIEDRLWALGGSEAELAHFEDSIAQFEQELQWYKGKGNPEVEALADEADAIESELHAYRHN
B34: D domain SEQ ID NO: 676 (designed binder)
chain: MGSWWEFSWRLEAIETRLDALGGSEAELAFFEMDIAWFEQDLQLYKGKGNPEVEALEEEAYAIYEELEAYRHN
B35: D domain SEQ ID NO: 687 (designed binder)
chain: MGSWREFHDRLFAIDGRLWALGGSEAELANFEWDIADFEFELQDYKGKGNPEVEALSWEADAIMQELGAYRHN
B36: D domain SEQ ID NO: 677 (designed binder)
chain: MGSWEEFFFRLEAIDDRLYALGGSEAELALFEEVIAYFEQDLQWYKGKGNPEVEALYVEAYAIQEELYAYRHN
B37: D domain SEQ ID NO: 680 (designed binder)
chain: MGSWAEFDDRLEAIEYRLHALGGSEAELAWFEEGIAGFEHALQSYKGKGNPEVEALETEAGAINEELWAYRHN
B38: D domain SEQ ID NO: 704 (designed binder)
chain: MGSWDEFSERLDAIWGRLEALGGSEAELATFEFHIAEFEHELQYYKGKGNPEVEALQGEAAAIINELYAYRHN
B39: D domain SEQ ID NO: 695 (designed binder)
chain: MGSWFEFLYRLDAIEDRLWALGGSEAELAEFEQEIAKFESELQSYKGKGNPEVEALEWEAHAIDMELEAYRHN
B40: D domain SEQ ID NO: 679 (designed binder)
chain: MGSWFEFEERLEAIIYRLWALGGSEAELAMFEESIAWFESDLQQYKGKGNPEVEALEYEAMAISKELKAYRHN
B41: D domain SEQ ID NO: 700 (designed binder)
chain: MGSWEEFDDRLDAIEHRLWALGGSEAELADFEGSIAAFESWLQVYKGKGNPEVEALEAEAEAIADELWAYRHN

For the test, the target named is T1, CD123 (Homo sapiens (Human), UniProt P26951 19-305, limits assumed).
T1 construct: also called CD123-Signal
T1 sequence: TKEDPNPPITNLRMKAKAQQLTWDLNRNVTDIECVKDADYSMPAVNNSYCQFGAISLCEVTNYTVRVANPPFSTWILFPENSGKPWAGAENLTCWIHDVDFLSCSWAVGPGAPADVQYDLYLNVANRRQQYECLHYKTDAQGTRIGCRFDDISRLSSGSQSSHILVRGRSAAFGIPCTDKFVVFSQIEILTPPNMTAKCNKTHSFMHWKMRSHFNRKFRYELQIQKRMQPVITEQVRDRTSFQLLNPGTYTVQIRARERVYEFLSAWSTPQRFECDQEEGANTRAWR
Put plainly: ELISA, format not described. The arrangement: unit not given here. A general note: An ELISA detects its analyte on a solid surface through an enzyme-linked reagent.
B1 came in with an ELISA_avg of 13.

B2 gave an ELISA_avg of 3.9.

As to B3, the ELISA_avg worked out at 3.8.

For B4, the ELISA_avg amounted to 4.

B5 came in with an ELISA_avg of 3.1.

B6: the ELISA_avg is 4.2.

On to B7, for which the ELISA_avg was 4.2.

For B8, the ELISA_avg amounted to 9.2.

Consider B9, for which the ELISA_avg stood at 4.3.

B10 returned an ELISA_avg of 4.3.

For B11, the ELISA_avg was determined as 3.3.

In turn, B12 showed an ELISA_avg of 6.5.

In turn, B13 showed an ELISA_avg of 5.6.

Consider B14, for which the ELISA_avg was 3.3.

The molecule B15 displayed an ELISA_avg of 4.3.

For the molecule B16, the ELISA_avg was 3.7.

B17: the ELISA_avg came out at 3.3.

Regarding B18, the ELISA_avg was 3.9.

B19 came in with an ELISA_avg of 4.

The molecule B20 came in with an ELISA_avg of 6.9.

Consider B21, for which the ELISA_avg stood at 4.7.

For the molecule B22, the ELISA_avg was 4.

In turn, B23 registered an ELISA_avg of 5.1.

B24 came in with an ELISA_avg of 8.9.

The molecule B25 gave an ELISA_avg of 7.7.

Consider B26, for which the ELISA_avg stood at 5.7.

B27: the ELISA_avg is 7.5.

As for B28, the ELISA_avg was 3.3.

The molecule B29 had an ELISA_avg of 6.5.

Consider B30, for which the ELISA_avg worked out at 3.

As to B31, the ELISA_avg came out at 4.6.

In the case of B32, the ELISA_avg was determined as 3.

On to B33, for which the ELISA_avg was found to be 16.6.

In turn, B34 gave an ELISA_avg of 3.3.

Molecule B35 registered an ELISA_avg of 5.6.

Take B36: the ELISA_avg came to 3.2.

Molecule B37 had an ELISA_avg of 5.8.

B38 yielded an ELISA_avg of 3.2.

In the case of B39, the ELISA_avg stood at 6.6.

With B40, the ELISA_avg is 3.7.

The molecule B41 had an ELISA_avg of 4.
